Results taken from patent US8173771B2, “Humanin receptor or humanin-like polypeptide receptor” (Keio Univeristy, priority 2005, dated 2012).

T1: C-terminally myc-tagged human WSX-1 (mycHis-WSX-1) (human, UniProt Q6UWB1 33-636)
T1 construct: whole, on cells; in the pull-down and co-immunoprecipitation it stood in cell lysates; also called myc-WSX-1; IL-27 receptor; not shown: C-terminal myc-His tag of the pEF-mycHis vector
T1 sequence (looked up): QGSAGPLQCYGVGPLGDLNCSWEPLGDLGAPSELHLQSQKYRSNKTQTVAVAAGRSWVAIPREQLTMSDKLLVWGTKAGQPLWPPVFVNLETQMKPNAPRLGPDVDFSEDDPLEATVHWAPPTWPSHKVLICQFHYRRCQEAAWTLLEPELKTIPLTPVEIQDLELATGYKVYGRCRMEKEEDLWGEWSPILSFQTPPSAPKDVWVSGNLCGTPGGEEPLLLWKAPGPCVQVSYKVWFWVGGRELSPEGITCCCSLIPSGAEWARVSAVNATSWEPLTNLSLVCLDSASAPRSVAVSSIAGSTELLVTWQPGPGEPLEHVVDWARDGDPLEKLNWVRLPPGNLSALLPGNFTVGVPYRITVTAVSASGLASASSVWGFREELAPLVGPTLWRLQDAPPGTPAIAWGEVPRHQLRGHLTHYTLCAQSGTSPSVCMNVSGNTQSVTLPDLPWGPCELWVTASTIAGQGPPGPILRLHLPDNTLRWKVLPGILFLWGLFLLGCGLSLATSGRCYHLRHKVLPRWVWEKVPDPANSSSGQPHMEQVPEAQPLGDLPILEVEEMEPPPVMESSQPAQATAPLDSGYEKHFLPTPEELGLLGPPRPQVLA

B1: IL-27: IL-27 (IL-27p28/EBV-induced gene 3), IL-6/IL-12 family cytokine binding to WSX-1/gp130 (protein)
chain 1: FPRPPGRPQLSLQELRREFTVSLHLARKLLSEVRGQAHRFAESHLPGVNLYLLPLGEQLPDVSLTFQAWRRLSDPERLCFISTTLQPFHALLGGLGTQGRWTNMERMQLWAMRLDLRDLQRHLRFQVLAAGFNLPEEEEEEEEEEEEERKGLLPGALGSALQGPAQVSWPQLLSTYRLLHSLELVLSRAVRELLLLSKAGHSVWPLGFPTLSPQP
chain 2: RKGPPAALTLPRVQCRASRYPIAVDCSWTLPPAPNSTSPVSFIATYRLGMAARGHSWPCLQQTPTSTSCTITDVQLFSMAPYVLNVTAVHPWGSSSSFVPFITEHIIKPDPPEGVRLSPLAERQLQVQWEPPGSWPFPEIFSLKYWIRYKRQGAARFHRVGPIEATSFILRAVRPRARYYVQVAAQDLTDYGELSDWSLPATATMSLGK

How the values were obtained:
STAT3 = assay: Immunoblot of phosphotyrosine 705 of STAT3 in F11 cells; format: cell-based; settings: F11 cells, 15 min
Protocol: E) F11 cells were transfected with an indicated amount of pRNA-U6.1/Shuttle vector (empty), pRNA-U6.1/Shuttle-IL-6R siRNA, or pRNA-U6.1/Shuttle-LIFR siRNA. At 48 hrs after transfection, the cells were treated with 100 ng/ml IL-6, 100 ng/ml CNTF or 1 μM HNG at 37° for 15 min, and harvested. The results of immunoblot analysis using anti-phophoSTAT3 ([…]) antibody and anti-STAT3 antibody were shown in photos. A) F11 cells were added with an indicated amount of HN, HNG or HNA and harvested 15 min later for immunoblot analysis with antibodies recognizing phosphotyrosine 705 of STAT3 or STAT3. The results are shown in photos. B) F11 cells were transfected with 0.5 μg of pRNA-U1.6/Shuttle vector, pRNA-U6.1/Shuttle-WSX-1 siRNA, pRNA-U6.1/Shuttle-CNTF-R siRNA, both pRNA-U6.1/Shuttle-WSX-1 siRNA and pRNA-U6.1/Shuttle-CNTF-R siRNA (0.5 μg each), or pRNA-U6.1/Shuttle-FPR2 siRNA. The total amount of vectors was adjusted to be 1.0 μg by including a backbone vector. […] The results are shown in photos. Cell lysates (10-20 μg/lane) or pulled-down precipitates were subject to SDS-PAGE, and the proteins separated on the gel were transferred onto polyvinylidene difluoride membranes as described (Hashimoto et al, 2000). Visualization of the immunoreactive protein bands was performed by ECL (Amersham Pharmacia Biotech, Uppsala, Sweden).

[1] = tested on: primary cortical neurons (PCNs); assay: Aβ neurotoxicity in primary cortical neurons, WST-8 / Calcein / LDH; format: cell-based, mouse; settings: PCN, 10 μM Aβ (1-43)
Protocol: B) PCNs were incubated with 25 μM Aβ (upper) in the presence of 10 μg of recombinant soluble human gp130 (lower “+”) or BSA (lower “−”). Cell viability was determined by WST-8 assay (upper) or Calcein fluorescence assay (lower) at 72 hr after the onset of treatment with Aβ.
C) PCNs were incubated with 25 μM Aβ (1-43) in the presence of 1 μg of neutralizing anti-mouse gp130 antibody (RX435) or control IgG. Cell viability and cell mortality were determined by Calcein fluorescence (left panel) and LDH assays (right panel), respectively, at 72 hr after the onset of treatment with Aβ (1-43).
[…] At 72 hr after incubation, the cells were harvested for WST-8 assays or/and Calcein fluorescence assays to show cell viability.
B) The soluble IL-6 receptor-α (sIL-6R) or the soluble CNTF-R (100 ng/ml) were added to the cells as in the above A), followed by the stimulation with its ligand, IL-6 or CNTF (100 ng/ml), respectively to show the effects on the neuronal cell death due to Aβ. The right and left graphs show the cell viabilities determined by WST-8 assays and Calcein fluorescence assays, respectively.
C) The neutralizing antibodies (1 μg) for the mouse gp130, mouse LIFR, mouse IL-11R and rat CNTF-R were added as in the above A), and cell viability was determined by Calcein fluorescence assays after 72 hours.
WST-8 assay was performed at 72 hrs after the treatment.
The primary culture of mouse cortical neurons was prepared as described previously (Sudo et al., 2000). Briefly, primary cortical neurons, obtained from embryonic day 14 (E14) ICR mice were seeded in poly-L-lysine-coated 96 well plates (Sumitomo Bakelite) at 2.5 or 5.0×10^4 cells/well in Neuron Medium (Sumitomo Bakelite) (Hashimoto et al., 2003; Niikura et al., 2004). Purity of neurons by this method was >98%. After 3 days, the culture medium was replaced with DMEM with N2 supplement. On the fourth day in vitro, 25 μM of Aβ (1-42) was added in association with indicated concentrations of HN or cytokines in the presence or the absence of soluble cytokine receptors or neutralizing antibodies. At 72 hrs after the onset of treatment, cell viability was assessed by WST-8 assay and/or Calcein fluorescence assay and cell mortality was assessed by the Trypan blue exclusion assay and LDH assay (Hashimoto et al, 2000, 2001 a b, 2003).

F11 cells = assay: Neuronal cell death of F11 cells induced by overexpression of FAD genes (V642I-APP, M146L-PS1), WST-8 / Trypan blue; format: cell-based
Protocol: D) F11 cells were transfected with 0.5 μg of the pcDNA3 vector or pcDNA3-V642I-APP in association with 0.5 μg of the pEFBos vector or pEFBos-wild-type human gp130 (gp130wt). At 24 hr after transfection, the cells were added with 1 μg of neutralizing anti-mouse gp130 antibody. Cell mortality (left panel) and cell viability (right panel) were determined by Trypan blue exclusion assay and WST-8 assay at 72 hr after transfection. Below are shown the results of the expression of V642I-APP, and human gp130wt, which were confirmed by immunoblot analysis (photos).
B) F11 cells were transfected with 0.5 μg of the pcDNA3 vector or pcDNA3-V642I-APP in association with pRNA-U6.1/Shuttle vector (NO), pRNA-U6.1/Shuttle-siWSX-1 (W), pRNA-U6.1/Shuttle-siCNTF-R (C), or pRNA-U6.1/Shuttle-siFPR-2 (F) (Hashimoto et al. 2005). At 24 hrs after transfection, the cells were added with or without 10 nM of HNG. At 72 hrs after transfection, the cells were harvested for WST-8 assays. […]
F11 cells were transfected with pcDNA3 vector or pcDNA3-V642I-APP. […] The expression of V642I-APP determined by immunoblot analysis was shown below in a photo. […]
The transfection procedures were as described (Hashimoto et al, 2000, 2001a, 2003). […] Transfection efficiency in these protocols has been determined to be invariably around 70%. […]

[2] = biological target: T1, C-terminally myc-tagged human WSX-1 …; assay: cold competitor (10 µM) in binding assay (1), F11 cells expressing human WSX-1 and gp130
Protocol: B) F11 cells were transfected with 0.5 µg of pEF-myc His human CREME9 or pEF-mycHis human WSX-1 in association with 0.5 µg of pCAG-human gp130. […] Fluorescence signals were detected with a laser-scanning, confocal microscope LSM (Carl Zeiss, Germany) (right panels).
(§1) F11 cells (7×10^4/well in 6-well plates) were replated into 96-well plates (7×10^3 cells/well) at 24 hrs after transfection with indicated amounts of the plasmids encoding mycHis-WSX or V5-CNTF-R, and with PCAG-human gp130 if required. […] After 6 hrs incubation, they were fixed with 4% paraformaldehyde in PBS for 30 min. After washing with PBS, cells were stained with FITC-conjugated avidin (Molecularprobe, Eugene, Oreg., USA). Immunofluorescence intensity was measured (excitation=485 nm, emission=535 nm) with a spectrofluorometer (Wallac1420 ARVOsx Multi Label Counter). Immunohistochemical analysis was done with a laser-scanning, confocal microscope LSM (Carl Zeiss, Germany).

[3] = biological target: T2, Humanin receptor (HNR) overexpressed in F11 cells: human CNTF-R/WSX-1/gp130 (human, UniProt P26992 23-342; Q6UWB1 33-636; P40189 23-918); assay: cold competitor in binding assay (2), F11 cells transfected with human CNTF-R/WSX-1/gp130
T2 construct: whole, on cells; The three human subunits co-transfected into F11 cells, which also carry the endogenous receptor; also called both the CNTF receptor and WSX-1; not shown: C-terminal V5 tag; C-terminal myc-His tag
Protocol: A) F11 cells were seeded on 96-well plates coated with poly-L-lysine (7 ×10^3 cells/well). […] On the other hand, F11 cells were transfected with 0.5 μg of pcDNA3.1/GS-human CNTF-R, pEF1/MycHis-human WSX-1, and 1.0 μg of pCAG-human gp130. At 24 hrs after the transfection, the cells were re-seeded on 96-well plates coated with poly-L-lysine (7 ×10^3 cells/well).
as §1

T2 sequence (P26992 23-342, chain 1 of 2): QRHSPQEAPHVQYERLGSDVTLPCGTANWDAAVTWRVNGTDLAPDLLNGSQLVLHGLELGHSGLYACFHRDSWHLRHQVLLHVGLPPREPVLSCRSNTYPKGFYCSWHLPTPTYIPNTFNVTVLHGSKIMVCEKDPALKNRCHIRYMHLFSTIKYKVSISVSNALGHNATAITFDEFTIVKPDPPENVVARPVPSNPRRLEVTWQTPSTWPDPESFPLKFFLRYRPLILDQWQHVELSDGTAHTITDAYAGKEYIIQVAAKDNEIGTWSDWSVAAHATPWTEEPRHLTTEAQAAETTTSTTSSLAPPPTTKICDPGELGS
T2 sequence (P40189 23-918, chain 3 of 2): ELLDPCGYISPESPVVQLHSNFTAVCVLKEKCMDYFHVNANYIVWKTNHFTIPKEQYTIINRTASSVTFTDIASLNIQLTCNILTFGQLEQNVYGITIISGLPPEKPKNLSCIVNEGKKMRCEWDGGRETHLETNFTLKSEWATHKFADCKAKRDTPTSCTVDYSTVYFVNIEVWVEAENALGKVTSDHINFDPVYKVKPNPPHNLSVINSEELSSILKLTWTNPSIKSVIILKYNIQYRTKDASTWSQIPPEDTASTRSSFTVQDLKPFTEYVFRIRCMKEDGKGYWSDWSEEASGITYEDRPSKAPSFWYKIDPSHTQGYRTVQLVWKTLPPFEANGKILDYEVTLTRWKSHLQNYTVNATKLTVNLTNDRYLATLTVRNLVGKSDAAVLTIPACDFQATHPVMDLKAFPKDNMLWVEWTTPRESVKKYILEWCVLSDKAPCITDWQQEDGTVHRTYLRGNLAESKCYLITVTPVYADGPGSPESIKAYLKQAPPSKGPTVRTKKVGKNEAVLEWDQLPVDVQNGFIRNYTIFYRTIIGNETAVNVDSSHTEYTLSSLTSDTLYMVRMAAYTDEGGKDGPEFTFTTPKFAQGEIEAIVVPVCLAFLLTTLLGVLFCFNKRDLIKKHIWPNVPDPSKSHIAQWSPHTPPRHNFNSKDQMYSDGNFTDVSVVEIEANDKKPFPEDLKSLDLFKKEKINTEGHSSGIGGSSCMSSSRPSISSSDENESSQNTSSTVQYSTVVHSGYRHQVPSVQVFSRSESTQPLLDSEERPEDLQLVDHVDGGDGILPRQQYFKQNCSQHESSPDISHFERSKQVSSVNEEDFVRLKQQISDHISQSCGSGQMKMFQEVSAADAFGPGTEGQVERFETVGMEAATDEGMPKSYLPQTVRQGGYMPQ

Molecule	phosphorylation of tyrosine 705 of STAT3 (STAT3)	effect on the HN effect ([1]; 10 nM HNG)	HN-like effect ([1]; higher concentration range)	concentration range showing HN-like effect (activity) (F11 cells; WST-8) [µM]	concentration range suppressing the HN effect (F11 cells; given with HNG) [nM]	binding result [2]	binding result [3]
B1	increased	suppressed the HN effect	had the HN-like effect	1 to 10	≤ 100		
MAPRGFSCLLLLTGEIDLPVKRRA (also called S14G-HN) [S14G-Humanin (HNG)]						binds	binds
